Data published in patent US20050152898A1 (BIOVATION, published 2005).
Residue numbers refer to the chain shown, from its start.

T1: CD52 human leukocyte antigen (human, UniProt P31358 25-36)
T1 construct: whole, on cells; also called CD52 antigen
T1 chain (looked up): GQNDTSQTSSPS

B1: DIVH5/DIVK5 (antibody, human IgG1, V domains shown)
VH: EVQLLESGGGLVQPGGSLRLSCAGSGFTFTDFYMNWIRQPPGKAPEWLGFIRDKAKGYTTEYNPSVKGRFTISRDNSKNTLYLQMNSLRAEDTAVYYCAREGHTAAPFDYWGQGTLVTVSS
VL: DIQMTQSPSSLSASVGDRVTITCKASQNIDKYLNWYQQKPGKSPKLLIYNTNNLQTGVPSRFSGSGSGTDFTLTISSLQPEDIATYYCLQHISRPRTFGTGTKLELK
notes: also called DIVHv5/DIVKv5
B2: DIVH3/DIVK5 (antibody, human IgG1, V domains shown)
VH: EVKLQESGGGLVQPGGSMRISCSGSGFTFTDFYMNWIRQPPGKGPEWIGFIRDKAKGYTTEYNPSVKGRFTISRDNTQNTLHLQANTLRAEDTAVYYCAREGHTAAPFDYWGQGTTVTVSS
VL: B1 VL
notes: also called DIVHv3/DIVKv5
B3: DIVH3/DIVK4 (antibody, human IgG1, V domains shown)
VH: B2 VH
VL: B1 VL with S43A, L46S
notes: also called DIVHv3/DIVKv4
B4: DIVH3/DIVK1 (antibody, human IgG1, V domains shown)
VH: B2 VH
VL: B1 VL with K24R, S43A, L46S, T56S
notes: also called DIVHv3/DIVKv1

Biological target: T1, CD52 human leukocyte antigen
Experiment: FACS on HUT-78 cells (CD52+), FITC anti-human IgG Fc, median fluorescence, 4-parameter fit; titre = 50% of maximum binding
Experimental: Human T-cell lymphoma cell line HUT-78 is CD52 positive and was used to assess binding of the modified antibodies of the present invention. In the present example, different concentrations of test antibody were incubated with the cells and the amount of bound antibody was assessed following incubation with a fluorescent-labelled reporter reagent. The reporter is measured using a fluorescence activated cell sorter (FACS).
For detection, the cells were incubated for 1 hour on ice with a 1:1000 dilution of FITC-labelled anti-human IgG Fc domain. This reagent is a goat anti-human IgG (Fc specific) obtained from Sigma (Poole, UK). The cells were washed as previously and re-suspended in 100 μl of PBS/2% FBS and transferred to 4 ml FACS tubes (Becton Dickinson) containing 900 μl of PBS/2% FBS/Propidium Iodide (1:1000). The cells were analysed using a conventional Becton Dickenson FACS Calibur instrument.
The binding of the test and control antibodies was determined using the Median Fluorescence value. The saturating concentration of antibody was determined from plots of the Median Fluorescence—Zero Antibody Median Fluorescence versus Concentration of antibody. The binding curves were fitted to a logistic 4 parameter sigmoidal equation using SigmaPlot, giving an excellent fit with 95% confidence levels.

EC50	Binder
3 µg/mL	B1
3.3 µg/mL	B2
8.63 µg/mL	B3
9.6 µg/mL	B4
